Assay results reported in US7595158B2, “Bcl2L12 polypeptide activators and inhibitors” (Dana-Farber Cancer Institute, Inc., priority 2003, dated 2009).

B1: Bcl2L12-V5: Bcl2L12 polypeptide having the V5 epitope tag, ectopically expressed from pBabe-Bcl2L12-V5 vector; human amino acid sequence 1-334 (protein)
chain: MGRPAGLFPPLCPFLGFRPEACWERHMQIERAPSVPPFLRWAGYRPGPVRRRGKVELIKFVRVQWRRPQVEWRRRRWGPGPGASMAGSEELGLREDTLRVLAAFLRRGEAAGSPVPTPPRSPAQEEPTDFLSRLRRCLPCSLGRGAAPSESPRPCSLPIRPCYGLEPGPATPDFYALVAQRLEQLVQEQLKSPPSPELQGPPSTEKEAILRRLVALLEEEAEVINQKLASDPALRSKLVRLSSDSFARLVELFCSRDDSSRPSRACPGPPPPSPEPLARLALAMELSRRVAGLGGTLAGLSVEHVHSFTPWIQAHGGWEGILAVSPVDLNLPLD
modifications: left off: small tags and cut ends
B2: Bcl2L12-V5-ΔBH2: V5 tagged mutant lacking amino acid residues 311-334 (BH2 domain) of human Bcl2L12; sequence 1-310 (protein)
chain: MGRPAGLFPPLCPFLGFRPEACWERHMQIERAPSVPPFLRWAGYRPGPVRRRGKVELIKFVRVQWRRPQVEWRRRRWGPGPGASMAGSEELGLREDTLRVLAAFLRRGEAAGSPVPTPPRSPAQEEPTDFLSRLRRCLPCSLGRGAAPSESPRPCSLPIRPCYGLEPGPATPDFYALVAQRLEQLVQEQLKSPPSPELQGPPSTEKEAILRRLVALLEEEAEVINQKLASDPALRSKLVRLSSDSFARLVELFCSRDDSSRPSRACPGPPPPSPEPLARLALAMELSRRVAGLGGTLAGLSVEHVHSFTP
modifications: left off: small tags and cut ends

How the values were obtained:
[1] = system: Ink4a/Arf deficient astrocytes; test: DNA fragmentation (sub-G1, FACS) in Ink4a/Arf deficient astrocytes after apoptotic stimuli; assay type: cell-based, mouse; conditions: for DNA fragmentation: 500 nM STS, pBabe about 22 percent
Procedure: After STS treatment, the cells were analyzed for apoptosis by assessing annexin V binding and DNA fragmentation using a FACS based analysis.
In a separate experiment, Ink4a/Arf deficient astrocytes ectopically expressing Bcl2L12-V5 polypeptide or containing an empty vector as control were treated with 0, 50, 100, or 1000 nM of STS. After a 24 hour-incubation, DNA fragmentation was measured using FACS-based quantification of sub-G1 DNA content.
In another experiment, Ink4a/Arf deficient astrocytes ectopically expressing Bcl2L12-V5 polypeptide or containing an empty vector as control were treated with 0, 2, 4, 8, 16, or 32 μM camptothecin (CPT) for 20 hours. After the 20 hour incubation, DNA fragmentation was determined by FACS-based quantification of sub-G1 peaks. Expression of the Bcl2L12 polypeptide conferred resistance to CPT-stimulated apoptosis.
Ink4a/Arf deficient astrocytes ectopically expressing Bcl2L12-V5 polypeptide or containing an empty vector as control were treated with TNFα in the presence of 1 μg/mL cycloheximide for 24 hours. After the 24 hour incubation, DNA fragmentation was measured using FACS-based quantification of sub-G1 DNA content.
Ink4a/Arf deficient astrocytes ectopically expressing Bcl2L12-V5 polypeptide or containing an empty vector as control were treated with 0, 10, 50, and 100 Gray (Gy) of γ radiation. After 24 hours, DNA fragmentation was measured. Ectopic expression of a Bcl2L12 polypeptide protects INK4a/Arf deficient astrocytes from γ-irradiation-induced apoptosis (FIG. 5C).

[2] = system: cytochrome c release; test: Cytochrome c release in STS-treated astrocytes; assay type: cell-based
Procedure: To determine whether Bcl2L12 polypeptides inhibit the apoptogenic activity of mitochondria, cytochrome c release in STS-treated astrocytes over-expressing Bcl2L12-V5 polypeptides was assessed and compared to astrocytes transfected with a LacZ control vector. An anti-tubulin immunoblot was performed as a loading control. Suboptimal concentrations of digitonin were used to allow for selective permeabilization of the plasma membrane, but not of the intracellular membranes. […] This is consistent with the inability of Bcl2L12-V5 polypeptides to localize to mitochondria.

[3] = molecular target: T1, caspase-9 (Homo sapiens, UniProt P55211); test: Caspase-9 in vitro cleavage and LEHDase activity assay with 293T cells; assay type: cell-based; conditions: for caspase-9 activity: V5 tagged constructs, vector only about 420 RFUs
T1 construct: endogenous in cells; host or cells: 293T
T1 sequence (P55211 1-416): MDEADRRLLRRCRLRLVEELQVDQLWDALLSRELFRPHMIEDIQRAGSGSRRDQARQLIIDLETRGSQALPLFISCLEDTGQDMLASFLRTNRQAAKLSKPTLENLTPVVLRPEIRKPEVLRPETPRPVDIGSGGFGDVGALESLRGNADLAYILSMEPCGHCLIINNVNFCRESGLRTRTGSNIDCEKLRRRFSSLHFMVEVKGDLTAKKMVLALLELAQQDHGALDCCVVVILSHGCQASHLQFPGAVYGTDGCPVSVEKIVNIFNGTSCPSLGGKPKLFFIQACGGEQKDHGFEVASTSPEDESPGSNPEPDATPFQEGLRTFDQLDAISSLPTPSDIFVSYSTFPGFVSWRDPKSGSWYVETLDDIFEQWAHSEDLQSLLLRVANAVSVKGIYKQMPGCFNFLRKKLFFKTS
Description: To determine if Bcl2L12 polypeptides could-regulate-the activity of caspase-9, a cell-free system was used in which exogenously added dATP and cytochrome c induced the activation of [^35S] labeled in vitro translated caspase-9. […] To confirm the inhibitory effect of Bcl2L12 polypeptides on caspase-9 maturation, 293T cells ectopically expressing Bcl2L12-V5 polypeptides where either subjected to an in vitro cleavage assay or to an activity assay using the caspase-9 specific fluorogenic peptide LEHD.
In addition, vectors encoding V5 tagged wild-type human Bcl2L12 polypeptide (WT; human amino acid sequence 1-334) and three V5 tagged truncation mutants of human Bcl2L12 (Bcl2L12-ΔBH2 polypeptide, human amino acid sequence 1-310; Bcl2L12-ΔBH2ΔP-r polypeptide, human amino acid sequence 1-267; and Bcl2L12-ΔBH2ΔP-rΔIHD polypeptide, human amino acid sequence 1-167) were made (FIG. 4A). These vectors expressed the appropriately sized polypeptides when translated in vitro or when expressed in 293T cells.

Molecule	resistance to anti-Fas, TRAIL, etoposide, and carboplatin mediated apoptosis [1]	DNA fragmentation [1]	protection from γ-irradiation-induced apoptosis (DNA fragmentation) ([1]; 10, 50, 100 Gy, 24 hours)	protection from STS-induced apoptosis (DNA fragmentation) ([1]; 50, 100, or 1000 nM STS, 24 hours)	protection from TNFα-mediated apoptosis (DNA fragmentation) ([1]; TNFα with 1 μg/mL cycloheximide, 24 hours)	maximum percent DNA fragmentation ([1]; camptothecin up to 32 μM, 20 hours, pBabe greater than 60 percent) [%]	cytochrome c release [2]	LEHDase activity ([3]; 293T cells, control vector about 800 RFUs)	caspase-9 activity [3]	processing of caspase-9 into p37 and p35 ([3]; in vitro cleavage assay, 293T cells, vs vector only)
B1	complete resistance	about 2%	protects	protected astrocytes from STS-induced apoptosis	significant protection	35 to 45	did not block cytochrome c release	about 260 RFUs	about 145 RFUs	reduced processing of caspase-9
B2	–	about 7%	–	–	–	–	exhibited cytochrome c release	–	about 160 RFUs	–
